Tested on: K4 kissing-loop RNA reporter
Test: apparent KD of K4 kissing-loop reporter; higher = weaker reporter binding
Conditions: Eterna round: R107
Protocol: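 RNA-MaP round R107: designed RNA switches with theophylline, tryptophan, arginine or FMN aptamers are transcribed on-chip within common flanks. They are titrated with a labelled K4 kissing-loop RNA reporter in RNA-MaP buffer (100 mM Tris pH 7.5, 80 mM KCl, 4 mM MgCl2), without ligand or with the indicated ligand. Median apparent KD per design.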

[1] = input ligand: theophylline 20 uM
[2] = input ligand: tryptophan 2.4 mM
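Note: bound reporter read as fluorescence of individual clusters on recovered sequencing chips by microscopy, with normalized cluster intensities fitted with a binding model.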

Sequence | apparent KD of K4 kissing-loop reporter (input ligand: FMN 200 uM) | apparent KD of K4 kissing-loop reporter (input ligand: arginine 13.2 mM) | apparent KD of K4 kissing-loop reporter (input ligand: none) | apparent KD of K4 kissing-loop reporter [1] | apparent KD of K4 kissing-loop reporter [2]
GGUUCUGGAAUCGAGUGAUGUUCGGUGUUGCAGGAUAUAGAGAGAUCUAGAAGGGCAGUUUGUAUUUUAUUGAGUGAUUUUCUUU [Last Minute #3] | 84 nM | 83.1 nM | 106 nM | 106 nM | 93.4 nM
CAUGGACUUCCAGUGUAUCCAUGACUGGAUACCAGUCAGGAAACUGACCCUUGGCAGCCAGAACUGGAAGUGAUGUUUCCAGUAA [Design8] | 227 nM | 214 nM | 244 nM | 244 nM | 240 nM
GGAUAGGAUAGAGGAUAUGGAAAACACAGAAGUGACUUGUUGUGUUUAUCCAUAGGGAGUGAUGUUCCAGAAGGCUGUCCUAUCG [MatMod 22 - Jieux - Exclusion - FMN B] | 333 nM | 206 nM | 206 nM | 230 nM | 154 nM
UGAUUGCCAGUGAUGUUGGCAUAUACUGAAGGAGCGCGUGAAAACGCAGGUAGGUCGCAGUUCCUUGCCAAUUGAUCGAAAGAUC [KL-XArg-A1] | 130 nM | 138 nM | 137 nM | 150 nM | 127 nM
GGAGAGCGGAACGAUACCAGCUGCGGCACGCACCGGAAGUUAAGCCAGUGAUGUUGGCGGAGCCCUUGGCAGCGUGCGCGCGUCC [Abeusma] | 122 nM | 93.3 nM | 104 nM | 145 nM | 105 nM
GAACGGCGGGCGGCCGCCACUGGUAUACGAGUGAUGUUCGGAUAUACGUGAUGUAAGGUAAUUAACAGGACCGGGUCAGGGCCGG [whbob_SS_Tryp_B_t20] | 278 nM | 208 nM | 239 nM | 294 nM | 238 nM
ACGUAGUUCUAGGAUACCAGCCAAGAAGCCAGGACAAAAGUCCUGGCUGCCAGUGAUGUUGGCCCUUGGCAGCCUAGAACUACGA [Omei KL Theo B Exc B v10] | 128 nM | 113 nM | 121 nM | 109 nM | 121 nM
GCGGGCCCUGGAGGAUAUGAGUCGAGUGAUGUUCGGCGGUCCAUGCCGAUGCGGCGUUAUGCCCUUUUAGAAGGCCAGGGCCCGC [#2 Exclusion - FMN B Attempt #7 (HarryS)] | 392 nM | 236 nM | 310 nM | 243 nM | 277 nM
UAAGAGGACCACUGCAAGAGUCCUCGAAUACGAGGACCGGUACGGCCGCCACUCGAUAACUUGCAGUGAUGUUGCAAGUAAGAAU [(T)''-(K)'-(T)'-(T1)-(T2)-(K1)-(K2)_Design1] | 124 nM | 129 nM | 119 nM | 144 nM | 84.4 nM
UUCUACGAGUGAUGUUCGUAGUGUAUUCACUAGGAUAUCGUUUUUUCGAGAAGGAGUGAGGAAGUGAUACGAAAGUAUCGCUUCC [FMN A 15] | 192 nM | 353 nM | 431 nM | 361 nM | 378 nM
AGUGCACUGUCAGGAUAUAUACAGUGAUGUUGUGUAUGUCAGCAAGUCAAAGACUUGCUCUUCUGUGUAGAAGGGACUGUGUACA [Omei KL FMN B Exc A v4] | 157 nM | 118 nM | 133 nM | 117 nM | 133 nM
UGAGUGAUGUUCAAGGACUAGAUCUAAAUAAAGGAUAUAGCAUACGCUAGAAGGUUAAAAUUUCUGGAUCCCAGUUUAAACCUUU [theeternabot_sameState_KL_FMN_A_49] | 246 nM | 154 nM | 222 nM | 222 nM | 195 nM
AAUUAAUGUAUAGAUUAUAUACAUUAAUCAGAGGAUAUGCUUUGUUGCAGAAGGCUGAAUGCAGUGAUGUUGCAAUUUUAAUUUA [JR_SSFMNA_Sub005] | 50.8 nM | 99.8 nM | 54.7 nM | 87.3 nM | 46.7 nM
CGUACGGUUUCUUUCUUUCCGUACGAGUGCCGAGGACCGGUACGGCCGCCACUCGCUACAGCCUAGUGAUGUUAGGAACGUGUUA | 87.2 nM | 73.1 nM | 81.8 nM | 87.3 nM | 54.7 nM
AUCCGAGAAUAUGAUACCAGCUGAGUGUAUCAAGACCGUAUCUCCCGUGCUAGUGAUGUUAGCCCUUGGCAGCAUAUGAAAGCGG [theeternabot_exclusion_KL_Theo_B_15] | 635 nM | 518 nM | 467 nM | 517 nM | 570 nM
UGUACCGAGUCAGGAUAUGGCGUCGAAAGACGAAACCAGUGAUGUUGGAAUAUCGACGAAAGUCGUCCAGAAGGGACUUGGUACU [FmnBS 17 #SwitchBubble #StaticStem #DoubleMagnetSystem] | 153 nM | 264 nM | 256 nM | 264 nM | 273 nM
GCAGGACGAGGAGGAGGAUGAAUUACUGAAGGAGCGCAUAUUUUUGCAGGUAGGUCGCGGUAAACAAGUAUAGUGAUGUUAUAUA [SSArgA.M] | 415 nM | 464 nM | 446 nM | 514 nM | 264 nM
AGCGUCCCUACGGCCGCCACUGGGAGUGAUGUUCCCAGGUUAGGCCUGAGGAUACUAAGGAUCGCCAGGACCGGGUAGCGACCAU [Azaonbe] | 88.5 nM | 81.1 nM | 80.3 nM | 69.2 nM | 92.3 nM
UGUUGAGUGAUGUUCGAUGUAGUUCAUUCAGAGGAUAUAGGGUGGGCUAGAAGGCUGAAAAGUGCUUCGAGUGAUGUUCGAAGAU [Exclusion FMN A GF 7] | 77.3 nM | 77.7 nM | 99.3 nM | 89.5 nM | 91.1 nM
UUAUAUUUCAGUGAUGUUGAAAAUAUAACAGAGGAUAUGCGUUUAAGCAGAAGGCUGAAAUACUAUACUUUAAUCUAUUAAAUUU [JR_Nu_SSFMNA_Sub027] | 195 nM | 356 nM | 350 nM | 353 nM | 323 nM
AGCGAUGUUUUCUCUAAGAGUGAUGUUUUUCGAGGACCGGUACGGCCGCCACUCGAAUAAAGUGUGCGGUAGUGAGCUGUUGACA [#18 K4 Tryptophan A Exclusion] | 710 nM | 550 nM | 747 nM | 580 nM | 718 nM

Sequence | apparent KD of K4 kissing-loop reporter (input ligand: FMN 200 uM) | apparent KD of K4 kissing-loop reporter (input ligand: arginine 13.2 mM) | apparent KD of K4 kissing-loop reporter (input ligand: none) | apparent KD of K4 kissing-loop reporter [1] | apparent KD of K4 kissing-loop reporter [2]
UGUACAUGUCAGCGAGUGAUGUUCGACGAUACCAGACUCGAUAGAGUCCCUUGGCAGCGUAACGCAUGCCAAACUGGCAUGUACU [#SwitchBubble 9 #K4Early] | 789 nM | 819 nM | 1120 nM | 646 nM | 773 nM
CGCGUGGGUUUGAGAGGGUUUGCGCGAAGUGAGGAUAUUUAGGGAGAAAGAAGGCACUAUAAAAUAUAGUGAUGUUAUAUAAGGG [SSFMNA.J] | 877 nM | 186 nM | 170 nM | 242 nM | 126 nM
GGGAGAGCGCGAAGGAGCGCCCUGACAGGUUGCUGCCGUGGGCAGUGAUGUUGCUCAGUCCGGCAGGUAGGUCGCGUGCUCUCCC | 178 nM | 148 nM | 192 nM | 200 nM | 177 nM
CAUACGCAUGGAGGAUAUGAGAUUUCUCAUAUUAUUUAAUAUUCUCAGUGAUGUUGAGAUUUAAACUCAGAAGGCCAUGUGUAUG [Ex FMN B 6] | 388 nM | 235 nM | 239 nM | 279 nM | 242 nM
AGGGCUGAGAGCGAUACCAGCGGAUACUAUAUGGUCCAAUAGAGUGAUGUUUUAUAAAGCCGCCCUUGGCAGCGCAAUCUAUUAG [XTheo-B4] | 1330 nM | 423 nM | 501 nM | 982 nM | 453 nM
AGUACAAUGGCGGCCGCCACUCAACAGCAGAUCAAAGAUCUGCUUCACUCAGUGAUGUUGAGUGAGAGGACCGGGCCUUUGUACA [Omei KL Tryp B SS B v4] | 793 nM | 614 nM | 783 nM | 853 nM | 216 nM
AAACGUUGGUCUGAUACCAGCUGAUCGGAAACGAUCUUGCUGGAGUGAUGUUCCAGGAAAAGCCCUUGGCAGCAGACCGACGAAA [MAT - Same State Theophlline B - Mod of Eli - D25] | 901 nM | 714 nM | 1510 nM | 1260 nM | 894 nM
UGUGUUGUUGUGAUGUUUGGUGUUGCAGGGCAGGAUAUCGUAGAGGCGAGAAGGGCUUUUGUGCGGUAUGAGUGAUGUUUGUAGG [rrcgsmullin] | 197 nM | 218 nM | 270 nM | 369 nM | 250 nM
UGAUAGGACAGAAGGAGCGGAAGCUAGUCAAAGACUAGCAAACGUUAAACAGGAGUGAUGUUCCAGGUAGGUCGCUGUCCUAUCU [ArgBX 23 #SwitchBubble #StaticStem] | 124 nM | 115 nM | 126 nM | 133 nM | 119 nM
GCCGUACGCAUGGAUACCAGCGUACGUCACCUAGCAGUGAUGUUGCUAUUGCCACGUAAACGCCCUUGGCAGCCAUGCGUACGGC | 495 nM | 448 nM | 478 nM | 181 nM | 445 nM
GCGCGUCAUGUCGGCGGUGACUACGCCGAUACCAGCCGGGAAACCGGCCCUUGGCAGCGGCGCGCCGGAGUGAUGUUCCGACAGA [#2 Exclusion - Theophylline A Attempt #3 (HarryS)] | 126 nM | 205 nM | 190 nM | 359 nM | 109 nM
AUCUGUCAAGGACAACAUUACUGAGGUGAUACCAGCAUCGAAAGAUGCCCUUGGCAGCACCAACUUGCAGUGAUGUUGCAAGUAA [BrourdMod 10 - Jieux - Exclusion - Theophylline A] | 346 nM | 236 nM | 332 nM | 393 nM | 299 nM
AGACGCCAGUCGGCCGCCACUCACAGCAGUGAUGUUGCUGAGAAUCUAGAAGAGUGAUGUUCUUAGAGGACCGGGACUCCAGUCG [Same State Tryptophan B GF 7] | 354 nM | 363 nM | 383 nM | 311 nM | 306 nM
CGCAGUGAUGUUGCUUAUAUUCUUGGUUAACGAGGACCGGUACGGCCGCCACUCGAUUUCUAACUAUUCCAGUGUUAAUUUGAGU [JR_ExcTryptoA_Sub006] | 444 nM | 488 nM | 502 nM | 564 nM | 306 nM
GCAAUUCUCAGUGAUGUUGAGUAAUCGGAAGGAGCGCGUGAAAACGCAGGUAGGUCGCCGAAACAUGAAGUAUCUUCGUGUUUGC [Arginine A K4 24] | 180 nM | 190 nM | 215 nM | 226 nM | 168 nM
AACAGCAAUGCGGCCGCCACUUCGAGUUCAGUGAUGUUGAAAGAAUUAAAUAAAGAUCCCAAGAGGAGGACCGGGCAGUGCUGUU [Default title] | 596 nM | 448 nM | 530 nM | 621 nM | 418 nM
AGCUCAGAGUGACUCGAUAAGAGUCACAAACGAGGACCGGUACGGCCGCCACUCGAAAUAACGAGAGUGAUGUUCUCGCUGAGCA [#SwitchBubble 1 #StaticStem #K4Late] | 1160 nM | 517 nM | 1000 nM | 285 nM | 340 nM
GCUAUGGUAGGAAGGAGCGCUUAUUCAUUAAUAAGAGUGAUGUUCGAUAAUGAAUAUUUAUAGCAGGUAGGUCGCCUACUAUAGC [Arginine B K4 2] | 300 nM | 223 nM | 230 nM | 206 nM | 237 nM
AUUUAGACGAGUGAUGUUCGUGUUAUUACAGAGGAUAUGCGUAAUUGCAGAAGGCUGUAUUUAUAUAUGUUAUGUGGUUUUAAAA [whbob_Ex_FMNA__2th185] | 75.1 nM | 98 nM | 77.6 nM | 93.8 nM | 63 nM
UGAUACCAGACUGAUACCAGCAAGUGAUGUUUGCUGAUCUAAAGCAGUCAAAGACUGCCUUGCCCUUGGCAGCAGUCUGGUAUCU [TheoBX 25 #SwitchBubble #StaticStem] | 92.3 nM | 81.7 nM | 96.6 nM | 156 nM | 81.1 nM
UGUACCGAGUCAGGAUAUGGCGUCGAAAGACGAAAACCAGUGAUGUUGGAAAUCUGCGAAAGCAGUCCAGAAGGGACUUGGUACU [FmnBS 25 #SwitchBubble #StaticStem #DoubleMagnetSystem] | 199 nM | 233 nM | 266 nM | 251 nM | 251 nM
